B1: TGFB3: TGFbeta agonist (protein, UniProt P10600 301-412, looked up)
Transforming growth factor …: ALDTNYCFRNLEENCCVRPLYIDFRQDLGWKWVHEPKGYYANFCSGPCPYLRSADTTHSTVLGLYNTLNPEASASPCCVPQDLEPLTILYYVGRTPKVEQLSNMVVKSCKCS

What was measured:
Format in all cases: cell-based, human
hiPSCs = experiment: Induction of primitive streak-like mesoderm from hiPSCs, flow cytometry; settings: hIPSCs induced with Activin A 3 ng/ml, BMP4 1 ng/ml, basic FGF 5 ng/ml and CHIR99061 1 micromolar, day 1 to day 3
From the text: FIG. 1. Serum-free differentiation of paraxial mesoderm, chondrocyte progenitors, and cartilage tissues from human pluripotent stem cells (hPSCs). […] On day 4 (T4), mesoderm populations are monitored by the expression of CD56 and PDGFRa on the cell surface by flow cytometry (B). Day 4 mesoderm cells are specified to a paraxial mesoderm fate in monolayer culture by treatment of Dorsomorphin, a BMP inhibitor, a TGFbeta inhibitor SB431542, and bFGF, from days 4 to 6 and bFGF from days 4 to 15 (stage 2). Day 15 paraxial mesoderm cells can generate chondrocyte progenitors by plating in a high density ‘spot’ termed micromass, or by plating onto collagen coated membrane filters (not shown) in the presence of TGFB3 for approximately 10 days (stage 3). Chondrocyte progenitors can be specified to articular chondrocytes or growth plate-like chondrocytes in a cartilage tissue format during stage 4 of differentiation by extended stimulation with TGFB3 (articular) or […] (growth plate-like) for example for 12 weeks. Tissues have been kept in culture for at least 7 months.

[1] = test system: hPSC-derived paraxial mesoderm; experiment: Chondrocyte specification in micromass culture with TGFB3 or BMP4 (histology, scatter flow cytometry, qRT-PCR, immunostaining)
From the text: FIG. 4. TGFB3 and BMP4 specify chondrocytes and cartilage-like tissues with articular cartilage and growth plate cartilage phenotypes. (A) Micrographs of 5 week old micromasses derived with TGFB3 or BMP4, 20× magnification. (B) Tissue histology (stained with toluidine blue) of 13 week cartilage tissues derived with TGFB3 or BMP4. […] (C) Flow cytometric analysis of forward and side cell scatter parameters of 3 week and 5 week old micromasses. Side scatter indicates cell granularity and forward cell scatter indicates cell size. (D) Comparison of hPSC-derived micromass tissues to fetal primary chondrocyte derived micromass tissues and the developing human fetal femur cartilage. Articular cartilage regions appear to have smaller cells in size compared to growth plate like regions, which contain cells which appear enlarged (hypertrophic). Cartilage tissues in micromass as well as in the fetal femur stain uniformly with the toluidine blue stain (images are pink/purple in color and indicate the presence of cartilage proteins). The BMP4-treated micromass tissues contain a large number of enlarged cells which is similar to the bottom panel of the fetal cartilage which represents a growth plate cartilage. TGFB3 treated micromass cultures contain fewer, if any, enlarged chondrocytes, and appear similar to the upper panel of the fetal cartilage which is the site of articular cartilage. (E) Micrograph using GDF5 instead of BMP4 to generate hypertrophic chondrocytes. (F) Histological analyses of cartilage tissues derived from hiPSCs stained with Toluidine blue after 12 weeks. (G,H) Immunohistochemical staining of hESC-derived cartilage tissues for type II Collagen (G, 8 week tissues), and lubricin (H, 12 week tissues).
FIG. 5. Gene expression analyses of chondrocyte specification in the presence of TGFB3 or BMP4 during stages 3 and 4 of differentiation respectively. General chondrocyte genes Sox9 (A) and collagen 2 (B), hypertrophic genes collagen 10 (C), Runx2 (D), osterix (E) and alkaline phosphatase (F), articular cartilage associated genes lubricin (G) and cartilage intermediate layer protein 2 (CILP2) (H), interzone-related (joint progenitor) genes GDF5 (I), ERG (J) and Wnt9a (K). Expression is copy number relative to TBP (n=3 to 8 biological replicates) and is compared to primary fetal chondrocytes (aged 16 to 19 weeks, n=4), primary healthy adult articular chondrocytes (n=2), and growth plate-like chondrocytes isolated from the iliac crest of an adult (n=1). T15 Mesoderm indicates day 15 hESC-derived paraxial mesoderm (DM+FGF-treated). Error bars indicate s.e.m.
FIG. 8. TGFβ1, TGFβ2, and TGFβ3 generated articular chondrocytes from hPSC-derived paraxial mesoderm. COL2A1, lubricin, and CILP2 gene expression after 12 weeks of micromass culture in the presence of TGF agonists as indicated (10 ng/ml). Values represent copy number mRNA relative to TBP. Error bars indicate s.e.m.
Previous studies have shown that TGFBeta/BMP signaling is required to generate chondrocyte progenitors from paraxial mesoderm. […] Following 10 days of TGFb3 treatment (day 25 total), cultures could be switched to media containing BMP4 or maintained in TGFb3 (stage 4) in order to specify subsets of chondrocytes (articular/non-hypertrophic or growth plate/hypertrophic). To determine the chondrocyte potential of the day 15 mesoderm populations, the cells were plated at high cell density in a 20 microliter volume on tissue culture treated Petri dishes for an hour (micromass) and then the ‘spot’ was submerged/covered with media. In our initial studies, the cells were ‘spotted’ in a media containing 2% fetal bovine serum. However, this short serum exposure can be omitted with no effects on cartilage formation at later stages, making this protocol optionally serum-free. After 2 to 3 days, serum-free media containing TGFb3 is added to the culture to generate chondrocyte progenitors. […]

fetal chondrocytes = experiment: CD73 flow cytometry of fetal chondrocytes in micromass culture; settings: 9 to 10 weeks of micromass culture
From the text: (§1) FIG. 6. CD73 is expressed by articular chondrocytes. Flow cytometric analyses of primary chondrocytes (A) Healthy adult articular chondrocytes and iliac crest GPC-like chondrocytes, (B) Primary fetal chondrocytes, primary (C) or passaged (passage (P)2, D) fetal chondrocytes after 9 to 10 weeks of micromass culture in the presence of TGFB3 or BMP4, and (E) hPSC-derived chondrocytes after 11 weeks derived in the presence of TGFB3 or BMP4. (F) Time course of CD73 and PDGFR-beta cells surface expression on T12 and T15 paraxial mesoderm populations, and micromass cultures treated with TGFB3 after 3 days, 10 days, and 2 weeks. (G) Time course of CD73 expression on TGFB3-treated micromasses after 3 days, 7 days, 10 days, and 2 to 5 weeks.
(§2) Primary (P0) and passaged (P2) fetal chondrocytes can also be cultured in micromass with TGFB3 or BMP4, similar to how hPSC-derived cartilage tissues are formed. TGFB3-treated fetal P0-derived or fetal P2-derived cartilage tissues contain over 93% CD73 positive cells, while BMP4 treatment reduces the percentage of CD73+ cells to 70% and 61% respectively (FIG. 6C,D). CD73 expression is also expressed by over 98% of hPSC-derived cartilage tissues derived with TGFB3-treatment (FIG. 6E). The percentage of CD73+ cells is reduced to only about 57% of cells after BMP4-treatment. Thus, CD73 marks primary healthy adult ACs, a proportion of healthy fetal chondrocytes, fetal chondrocytes or passaged fetal chondrocytes cultured as micromasses in TGFB3, and TGFB3-treated articular chondrocyte-like cells derived from human PSCs.

[2] = test system: hPSC-derived chondrocytes; experiment: CD73 flow cytometry of hPSC-derived cartilage tissues; settings: hPSC-derived cartilage tissues after 11 weeks
From the text: as §1
as §2, with “Thus, CD73 marks primary healthy adult ACs, a proportion of healthy fetal chondrocytes, fetal chondrocytes or passaged fetal chondrocytes cultured as micromasses in TGFB3, and TGFB3-treated articular chondrocyte-like cells derived from human PSCs.” left out

| Molecule | expression of cell surface markers CD56, PDGFRalpha and KDR (hiPSCs) | forward and side scatter of live cells (cell size, granularity) ([1]; 3 week and 5 week micromasses) | chondrocyte morphology ([1]; 5 week old micromasses) | Lubricin protein (immunohistochemistry) ([1]; 12 week micromass tissue) | tissue histology (toluidine blue), chondrocyte size ([1]; 13 week old tissues, GDF5 instead of BMP4) | expression of mature AC genes, such as lubricin and CILP2 ([1]; extended period of time (up to 12 weeks)) | COL2A1 expression ([1]; qRT-PCR, by 2 weeks of culture) | SOX9 expression ([1]; qRT-PCR, by 2 weeks of culture) | CD73 positive cells (fetal chondrocytes; passaged (P2) fetal chondrocytes) | CD73 positive cells (fetal chondrocytes; primary (P0) fetal chondrocytes) | CD73 positive cells [2] |
| --- | --- | --- | --- | --- | --- | --- | --- | --- | --- | --- | --- |
| Cc1cnc(-c2cnc(NCCNc3ccc(C#N)cn3)nc2-c2ccc(Cl)cc2Cl)[nH]1 [CHIR99061] | also expresses CD56, PDGFRalpha and KDR |  |  |  |  |  |  |  |  |  |  |
| B1 |  | tight population of smaller, less granular cells | small fibroblastic-like phenotype | present | small cells (chondrocytes) dispersed evenly throughout the tissue | allows for the expression of mature AC genes | upregulated | upregulated | over 93% | over 93% | over 98% |
